Test results: patent US20070111260A1

Assays:
[1] = target: FcγRIIIA-streptavidin fusion protein (human; Streptomyces avidinii) (UniProt P08637); assay: ELISA: antibody captured on protein A/G, FcγRIIIA-streptavidin (1:1000), biotin-HRP; the text speaks of IC50 values
[2] = target: FcγRI and FcγRII on THP-1 cells; assay: flow cytometry, antibody on THP-1 cells, FITC anti-human IgG Fab
[3] = target: human C1q (Quidel) (human) (UniProt P02745); assay: ELISA: antibody captured on protein A/G, human C1q 2 ug/ml, anti-C1q detection
Sequence of human C1q (Quidel) (human) (P02745 23-245, chain 1 of 3): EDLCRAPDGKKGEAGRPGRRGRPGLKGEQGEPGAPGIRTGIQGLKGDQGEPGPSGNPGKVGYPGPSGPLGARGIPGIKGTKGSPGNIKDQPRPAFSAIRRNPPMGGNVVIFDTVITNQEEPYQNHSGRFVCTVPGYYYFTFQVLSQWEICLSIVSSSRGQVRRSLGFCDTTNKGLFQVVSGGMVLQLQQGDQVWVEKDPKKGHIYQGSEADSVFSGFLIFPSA
Sequence of human C1q (Quidel) (human) (P02746 28-253, chain 2 of 3, further chain): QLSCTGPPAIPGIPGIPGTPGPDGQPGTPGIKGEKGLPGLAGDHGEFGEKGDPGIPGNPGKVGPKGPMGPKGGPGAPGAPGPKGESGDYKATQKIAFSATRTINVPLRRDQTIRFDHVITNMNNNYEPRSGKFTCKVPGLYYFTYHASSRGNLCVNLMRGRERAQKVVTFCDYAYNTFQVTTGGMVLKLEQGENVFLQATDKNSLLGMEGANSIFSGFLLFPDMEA
Sequence of human C1q (Quidel) (human) (P02747 29-245, chain 3 of 3, further chain): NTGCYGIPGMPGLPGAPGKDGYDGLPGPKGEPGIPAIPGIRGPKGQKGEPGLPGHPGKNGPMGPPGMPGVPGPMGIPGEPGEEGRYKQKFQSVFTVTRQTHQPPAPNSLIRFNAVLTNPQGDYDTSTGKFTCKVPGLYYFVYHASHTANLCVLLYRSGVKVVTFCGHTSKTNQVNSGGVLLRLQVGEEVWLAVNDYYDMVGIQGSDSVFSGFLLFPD

Sequence of FcγRIIIA-streptavidin fusion protein (human; Streptomyces avidinii) (P08637 17-208 limits assumed): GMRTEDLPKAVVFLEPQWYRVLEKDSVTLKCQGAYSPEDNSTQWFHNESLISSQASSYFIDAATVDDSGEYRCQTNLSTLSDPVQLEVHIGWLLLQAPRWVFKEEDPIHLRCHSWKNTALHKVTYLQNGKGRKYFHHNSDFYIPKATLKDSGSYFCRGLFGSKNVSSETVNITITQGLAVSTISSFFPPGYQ

| FcγRIIIA Binding [1] [µg/mL] | FcγRI&II Binding (fold less, against wild type) [2] [fold] | C1q binding (fold less, against wild type) [3] [fold] | Substance |
| --- | --- | --- | --- |
| 4.93 | – | – | 12G3H11 anti-EphA2 antibody Fc variant InE240/241 (soluble) (from UniProt P01857 1-330) |
| – | 9 | 2 | 12G3H11 anti-EphA2 antibody Fc variant K246R/L251E/T260R (soluble) |
| 0.5 | – | – | 12G3H11 anti-EphA2 antibody Fc variant W277T (soluble) |
